Reference: PMC3401642

B1: Cyanovirin-N (natural protein)
chain: LGKFSQTCYNSAIQGSVLTSTCERTNGGYNTSSIDLNSVIENVDGSLKWQPSNFIETCRNTQLAGSSELAAECKTRAQQFVSTKINLDDHIANIDGTLKYE

Assays:
[1] = biological target: HIV-1 subtype C Env clone Du151.2 V295N (HIV-1 subtype C)
[2] = biological target: HIV-1 subtype C Env clone COT6.15 V295N (HIV-1 subtype C)
[3] = biological target: HIV-1 subtype C Env clone COT9.6 V295N (HIV-1 subtype C)
[4] = biological target: HIV-1 subtype C envelope glycoprotein (Env, gp160) clone CAP63.cvl6GA (HIV-1 subtype C)
[5] = biological target: HIV-1 subtype C envelope glycoprotein (Env, gp160) clone CAP177.cvl96 (HIV-1 subtype C)
[6] = biological target: HIV-1 subtype C envelope glycoprotein (Env, gp160) clone COT9.6 (HIV-1 subtype C)
[7] = biological target: HIV-1 subtype C envelope glycoprotein (Env, gp160) clone CAP63.A9J (HIV-1 subtype C)
[8] = biological target: HIV-1 subtype A envelope glycoprotein (Env) clone Q461.e2 (HIV-1 subtype A)
[9] = biological target: HIV-1 subtype B envelope glycoprotein (Env, gp160) clone THRO4156.18 (HIV-1 subtype B)
[10] = biological target: HIV-1 subtype B envelope glycoprotein (Env, gp160) clone CAAN5342.A2 (HIV-1 subtype B)
[11] = biological target: HIV-1 subtype A envelope glycoprotein (Env) clone Q168.a2 (HIV-1 subtype A)
[12] = biological target: HIV-1 subtype C envelope glycoprotein (Env, gp160) clone Du151.2 (HIV-1 subtype C)
[13] = biological target: HIV-1 subtype C envelope glycoprotein (Env, gp160) clone CAP210.E8J (HIV-1 subtype C)
[14] = biological target: HIV-1 subtype C envelope glycoprotein (Env, gp160) clone CAP261.cvl93 (HIV-1 subtype C)
[15] = biological target: HIV-1 subtype C envelope glycoprotein (Env, gp160) clone CAP206.08J (HIV-1 subtype C)
[16] = biological target: HIV-1 subtype A envelope glycoprotein (Env) clone Q23.17 (HIV-1 subtype A)
[17] = biological target: HIV-1 subtype C envelope glycoprotein (Env, gp160) clone CAP270.cvl44 (HIV-1 subtype C)
[18] = biological target: HIV-1 subtype C envelope glycoprotein (Env, gp160) clone COT6.15 (HIV-1 subtype C)
[19] = biological target: HIV-1 subtype A envelope glycoprotein (Env) clone 92RW009 (HIV-1 subtype A)
[20] = biological target: HIV-1 subtype B envelope glycoprotein (Env, gp160) clone PVO.4 (HIV-1 subtype B)
[21] = biological target: HIV-1 subtype A envelope glycoprotein (Env) clone Q842.d12 (HIV-1 subtype A)
[22] = biological target: HIV-1 subtype C envelope glycoprotein (Env, gp160) clone TM7.9 (HIV-1 subtype C)
[23] = biological target: HIV-1 subtype C envelope glycoprotein (Env, gp160) clone CAP228.51J (HIV-1 subtype C)
[24] = biological target: HIV-1 subtype B envelope glycoprotein (Env, gp160) clone AC10.0.29 (HIV-1 subtype B)
[25] = biological target: HIV-1 subtype C envelope glycoprotein (Env, gp160) clone RP6.6 (HIV-1 subtype C)
[26] = biological target: HIV-1 subtype C envelope glycoprotein (Env, gp160) clone CAP256.F7J (HIV-1 subtype C)
[27] = biological target: HIV-1 subtype C envelope glycoprotein (Env, gp160) clone CAP45.G3J (HIV-1 subtype C)
[28] = biological target: HIV-1 subtype B envelope glycoprotein (Env, gp160) clone QH0692.42 (HIV-1 subtype B)
[29] = biological target: HIV-1 subtype B envelope glycoprotein (Env, gp160) clone WITO4160.33 (HIV-1 subtype B)

Molecule | IC50 of neutralisation of Env-pseudotyped virus (TZM-bl assay) [1] | IC50 of neutralisation of Env-pseudotyped virus (TZM-bl assay) [2] | IC50 of neutralisation of Env-pseudotyped virus (TZM-bl assay) [3] | IC50 of neutralisation of Env-pseudotyped virus (TZM-bl assay) [4] | IC50 of neutralisation of Env-pseudotyped virus (TZM-bl assay) [5] | IC50 of neutralisation of Env-pseudotyped virus (TZM-bl assay) [6] | IC50 of neutralisation of Env-pseudotyped virus (TZM-bl assay) [7] | IC50 of neutralisation of Env-pseudotyped virus (TZM-bl assay) [8] | IC50 of neutralisation of Env-pseudotyped virus (TZM-bl assay) [9] | IC50 of neutralisation of Env-pseudotyped virus (TZM-bl assay) [10] | IC50 of neutralisation of Env-pseudotyped virus (TZM-bl assay) [11] | IC50 of neutralisation of Env-pseudotyped virus (TZM-bl assay) [12] | IC50 of neutralisation of Env-pseudotyped virus (TZM-bl assay) [13] | IC50 of neutralisation of Env-pseudotyped virus (TZM-bl assay) [14] | IC50 of neutralisation of Env-pseudotyped virus (TZM-bl assay) [15] | IC50 of neutralisation of Env-pseudotyped virus (TZM-bl assay) [16] | IC50 of neutralisation of Env-pseudotyped virus (TZM-bl assay) [17] | IC50 of neutralisation of Env-pseudotyped virus (TZM-bl assay) [18] | IC50 of neutralisation of Env-pseudotyped virus (TZM-bl assay) [19] | IC50 of neutralisation of Env-pseudotyped virus (TZM-bl assay) [21] | also measured
Griffithsin (from UniProt P84801 1-121) (natural protein) | 0.03 nM | 0.06 nM | 0.06 nM | 25.7 nM | 55.9 nM | 1.2 nM | 23.2 nM | 0.12 nM | 1.2 nM | 11.7 nM | 3.3 nM | 1.5 nM | 0.2 nM | 4.2 nM | 30.9 nM | 1.9 nM | 0.3 nM | 0.4 nM | 1.8 nM |  | 
Scytovirin (from UniProt P86041 1-95) (natural protein) | 32.5 nM | 16.1 nM | 63 nM | 43.8 nM | 21.8 nM | 57.6 nM | 29.8 nM | 18.9 nM | 42.6 nM | 188 nM | 9.4 nM | 27.5 nM | 33.1 nM | 6.2 nM | 113 nM | 29.8 nM | 11.7 nM | 10.8 nM | 21.8 nM | 40.9 nM | IC50 of neutralisation of Env-pseudotyped virus (TZM-bl assay) [20]: 25.2 nM; IC50 of neutralisation of Env-pseudotyped virus (TZM-bl assay) [22]: 12.1 nM; IC50 of neutralisation of Env-pseudotyped virus (TZM-bl assay) [23]: 20.1 nM; IC50 of neutralisation of Env-pseudotyped virus (TZM-bl assay) [24]: 24.5 nM; IC50 of neutralisation of Env-pseudotyped virus (TZM-bl assay) [25]: 11.3 nM; IC50 of neutralisation of Env-pseudotyped virus (TZM-bl assay) [26]: 6.7 nM; IC50 of neutralisation of Env-pseudotyped virus (TZM-bl assay) [27]: 16.9 nM; IC50 of neutralisation of Env-pseudotyped virus (TZM-bl assay) [28]: 27.3 nM; IC50 of neutralisation of Env-pseudotyped virus (TZM-bl assay) [29]: 24.8 nM
B1 | 1.2 nM | 1.1 nM | 4.4 nM | 3.1 nM | 7.5 nM | 3.9 nM | 1.8 nM | 1.2 nM |  | 16.7 nM | 1.4 nM | 2 nM | 1.2 nM | 1.8 nM | 18 nM | 3 nM |  | 0.9 nM | 1.2 nM | 2.5 nM | IC50 of neutralisation of Env-pseudotyped virus (TZM-bl assay) [22]: 1.1 nM; IC50 of neutralisation of Env-pseudotyped virus (TZM-bl assay) [23]: 3.1 nM; IC50 of neutralisation of Env-pseudotyped virus (TZM-bl assay) [24]: 0.3 nM; IC50 of neutralisation of Env-pseudotyped virus (TZM-bl assay) [25]: 1.1 nM; IC50 of neutralisation of Env-pseudotyped virus (TZM-bl assay) [26]: 1.1 nM; IC50 of neutralisation of Env-pseudotyped virus (TZM-bl assay) [28]: 2.5 nM; IC50 of neutralisation of Env-pseudotyped virus (TZM-bl assay) [29]: 1.5 nM
